Assay results from patent US20260132208A1 (DOMAIN THERAPEUTICS, published 2026).
Several values for one entry are separate records, joined by “and”; a condition that tells them apart may be missing. Identical values can stand only once.

Assays:
[1] = molecular target: T1, pm8 (Y15, Y16 and Y17 sulfated); assay: ELISA on coated peptide [cont.]
T1 construct: also called sulfated CCR8 N-terminal peptide pm8
Procedure: (§1) The specific binding properties of antibodies were evaluated by ELISA with coated CCR8 related peptides (500 ng/ml) in carbonate/bicarbonate buffer. Different peptides were used as described in Table 1 (see Example 1). Each anti-CCR8 mAb was tested at 1 μg/mL then diluted at 1/10. After an incubation at room temperature during 90 min, unbound mAbs were removed by washings. […] After washings, 3,3′,5,5′-tetramethylbenzidine (TMB) (Interchim, Montluçon, France) was added for 15 min. Then the optical density (OD) was determined by using a multiplate reader (Tecan, Lyon, France) and correlated with mAb reactivity on the panel of coated peptides.

[2] = molecular target: T2, pm6 (Y16 and Y17 sulfated; Y15 not sulfated); assay: ELISA on coated peptide [cont.]
T2 construct: also called sulfated CCR8 N-terminal peptide pm6
T2 sequence (peptide, as listed by the source): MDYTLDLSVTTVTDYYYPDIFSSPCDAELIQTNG
Procedure: as §1

[3] = molecular target: T3, pm3 (Y17 sulfated; Y15 and Y16 not sulfated); assay: ELISA on coated peptide [cont.]
T3 construct: also called sulfated CCR8 N-terminal peptide pm3
T3 sequence (peptide, as listed by the source): as above
Procedure: as §1

[4] = molecular target: T4, pm5 (Y15 and Y17 sulfated; Y16 not sulfated); assay: ELISA on coated peptide [cont.]
T4 construct: also called sulfated CCR8 N-terminal peptide pm5
T4 sequence (peptide, as listed by the source): as above
Procedure: as §1

[5] = molecular target: T5, human CCR8 (human, UniProt P51685 1-355); assay: cell-based or functional assay
[6] = molecular target: T5, human CCR8; assay: flow cytometry, hCCR8-transfected CHO-K1 cells
Procedure: Briefly, 1.10⁵ cells per well in a 96 well plate were incubated with a dilution of unconjugated anti-CCR8 mAb at 10 μg/mL then diluted at 1/3.33, 4 dilution points (during 30 min at 4° C.). In human activated T cells model, prior to mAb incubation, cells were first incubated with 200 nM of hCCL1 (R&D Systems, Minneapolis, MN, USA) or buffer PBS (Invitrogen by Thermofisher Scientific, Illkirch-Graffenstaden, France) supplemented by 2% Fetal Bovine Serum (Invitrogen by Thermofisher Scientific, Illkirch-Graffenstaden, France) and 2 mM EDTA (Invitrogen by Thermofisher Scientific, Illkirch-Graffenstaden, France) during 1 hour at 4° C. To determine EC50 value, 8 concentrations of anti-CCR8 mAb were tested. Unbound antibodies were washed away with PBS (Invitrogen by Thermofisher Scientific, Illkirch-Graffenstaden, France) supplemented by 2% Fetal Bovine Serum (Invitrogen by Thermofisher Scientific, Illkirch-Graffenstaden, France) and 2 mM EDTA (Invitrogen by Thermofisher Scientific, Illkirch-Graffenstaden, France). Subsequently, cells are centrifuged (5 min at 400 g) and bound antibody is detected with F(ab′)2-Goat anti-Mouse IgG (H+L) Cross-Adsorbed Secondary Antibody, Alexa Fluor 488 (dilution 1/500) (Invitrogen by Thermofisher Scientific, Illkirch-Graffenstaden, France) or with F(ab′)₂-Goat anti-Human IgG Fc Secondary Antibody, PE (Invitrogen by Thermofisher Scientific, Illkirch-Graffenstaden, France) (dilution 1/1000) at 4° C. for 30 min. Detection reagent is washed away and cells are centrifuged (5 min at 400 g) and resuspended in 30 μL PBS. Bound detection antibody is quantified on a MacsQuant16 (Miltenyi, Gladbach, Germany) (B1 or B2 channel, 5000 events per acquisition). During the experiment, the respective isotype mAb controls (mouse IgG1, mouse IgG2a, mouse IgG2b, mouse IgG3 or human IgG1) (Biolegend, Amsterdam, The Netherlands) are included to exclude any unspecific binding events. EC50 values were determined via nonlinear fit “log (agonist) vs.response—Variable slope (four parameters)” function of Graphpad prism. EC50 values were not constantly determined in the same experiments.

[7] = molecular target: T5, human CCR8; assay: cell-based or functional assay; remark: listed apart in the source
[8] = molecular target: T5, human CCR8; assay: flow cytometry, inhibition of hCCL1-AF647 (10 nM) binding to hCCR8-CHO cells
Procedure: The hCCR8 transfected CHO cell line was dispatched at a density of 1.105 per well in a 96-well plate. Cells were incubated for 30 min at 4° C. with or without anti-CCR8 mAb tested at 10 μg/mL then diluted at 1/3. Unbound antibodies were washed away with PBS (Gibco, Villebon-sur-yvette, France) supplemented by 2% Fetal Bovine Serum (Invitrogen by Thermofisher Scientific, Illkirch-Graffenstaden, France) and 2 mM EDTA. […] After washing unbound ligands, CCL1 bound detection is quantified on a MacsQuant16 (Miltenyi, Gladbach, Germany) (R1 channel, 5 000 events per acquisition).
For IC₅₀ determination, a concentration response curve is performed using 8 concentrations of mAb. Curves are fitted and IC₅₀ of CCL1 binding blocking activity is calculated using the sigmoidal dose-response (variable slope) model on GraphPad Prism 9 (GraphPad Software, San Diego, CA, USA).

[9] = molecular target: T5, human CCR8; assay: cell-based or functional assay; remark: listed apart in the source
[10] = molecular target: T5, human CCR8; assay: cell-based or functional assay; remark: listed apart in the source
[11] = molecular target: human CCR8 with a SNAP-tag at the N-terminus (human, UniProt P51685 1-355, SNAP-tag labelled covalently with Lumi4-Terbium); assay: cell-based or functional assay

T1 sequence (peptide, as listed by the source): as above

Binder	binding result [1]	binding result [2]	binding result [3]	binding result [4]	IC50 of CCL1-induced hCCR8 Gi2 signaling (BRET, HEK-293) [5]	% positive cells [6] [%]	MFI fold change to isotype ctrl [6] [fold]	extrapolated top plateau of hCCL1 curve with 5 µg/mL mAb, protocol #3 [7]	IC50 [8]	IC50 of CCL1-induced hCCR8 Gi2 signaling (BRET), pH 6.5 [9]	IC50 of CCL1-induced hCCR8 Gi2 signaling (BRET), pH 7.4 [9]	residual hCCL1 (100 nM) Gi2 response, protocol #2, mAb 0.08 µg/mL [10] [%]	residual hCCL1 (100 nM) Gi2 response, protocol #2, mAb 0.4 µg/mL [10] [%]	residual hCCL1 (100 nM) Gi2 response, protocol #2, mAb 10 µg/mL [10] [%]	residual hCCL1 (100 nM) Gi2 response, protocol #3, mAb 0.05 µg/mL [10] [%]	residual hCCL1 (100 nM) Gi2 response, protocol #3, mAb 0.5 µg/mL [10] [%]	residual hCCL1 (100 nM) Gi2 response, protocol #3, mAb 5 µg/mL [10] [%]	% hCCR8 internalization with CCL1 300 nM, mAb 1 µg/ml (HTRF) [11] [%]	% hCCR8 internalization with CCL1 300 nM, mAb 10 µg/ml (HTRF) [11] [%]
Ref #2 (antibody, human IgG1, V domains shown) VH: QVQLVQSGAEVKKPGASVKVSCKASGYTFTSYYMHWVRQAPGQGLEWMGIINPSGGSTSYAQKFQGRVTMTRDTSTSTVYMELSSLRSEDTAVYYCARAVRNRFRFDYWGQGTLVTVSS VL: QSALTQPASVSGSPGQSITISCTGTSSDVGSYNLVSWYQQHPGKAPKLMIYEVSKRPSGVSNRFSGSKSGNTASLTISGLQAEDEADYYCSSYAGSSTFVVFGGGTKLTVL	–	–	–	–	–	–	–	–	–	–	–	–	–	–	–	–	–	100	90
anti-CCR8 mAb 1-13 (antibody, V domains shown, Murine hybridoma mAb) VH: EVQLVETGGGLVQPKGSLKLSCAASGFTFNTNAMNWVRQAPGKGLEWVARIRSKSNYYATYYADSVKDRFTISRDDSQSMLYLQMNNLKTEDTAMYYCVRGREMGNYYSMDYWGQGTSVTVSS VL: DIVMTQAAPSVPVTPGESVSISCRSSKSLLHSNGNTYLYWFLQRPGQSPQLLIYRMSNLASGVPDRFSGSGSGTAFTLRISRVEAEDVGVYYCMQHLEYPFTFGSGTKLEIK	binds	binds	binds	binds	0.01 µg/mL and 0.067 nM	64.7	5.63	149 % of hCCL1 (100 nM)	0.36 µg/mL and 2.42 nM	0.019 µg/ml and 0.125 nM	0.011 µg/ml and 0.075 nM	60	35	21	69	39	38	–	–
anti-CCR8 mAb 1-14 (antibody, V domains shown, Murine hybridoma mAb) VH: QVQLVETGGGLVRPGNSLKLSCVTSGFTFSNYRMHWLRQPPGKRLEWIAVIKVKSDNYGANYAESVKGRFTISRDDSKSSVYLQVNRLREEDTATYYCSSPTYPGSSGFAYWGQGTLVTVSA VL: DIQMTQTTSSLSASLGDRVTISCRASQDISNYLNWYQQKPDGTVKLLIYYTSRLHSGVPSRFSGSGSGTDYSLTISNLEQEDIATYFCQQGNKFPPTFGGGTKLEIN	binds	binds	binds	binds	0.01 µg/mL and 0.066 nM	83	17.6	305000 % of hCCL1 (100 nM)	0.28 µg/mL and 1.85 nM	0.014 µg/ml and 0.095 nM	0.004 µg/ml and 0.026 nM	93	89	48	92	68	50	–	–

Continued, values first:

binding result [1]	binding result [2]	binding result [3]	binding result [4]	IC50 of CCL1-induced hCCR8 Gi2 signaling (BRET, HEK-293) [5]	% positive cells [6] [%]	MFI fold change to isotype ctrl [6] [fold]	extrapolated top plateau of hCCL1 curve with 5 µg/mL mAb, protocol #3 [7]	IC50 [8]	IC50 of CCL1-induced hCCR8 Gi2 signaling (BRET), pH 6.5 [9]	IC50 of CCL1-induced hCCR8 Gi2 signaling (BRET), pH 7.4 [9]	residual hCCL1 (100 nM) Gi2 response, protocol #2, mAb 0.08 µg/mL [10] [%]	residual hCCL1 (100 nM) Gi2 response, protocol #2, mAb 0.4 µg/mL [10] [%]	residual hCCL1 (100 nM) Gi2 response, protocol #2, mAb 10 µg/mL [10] [%]	residual hCCL1 (100 nM) Gi2 response, protocol #3, mAb 0.05 µg/mL [10] [%]	residual hCCL1 (100 nM) Gi2 response, protocol #3, mAb 0.5 µg/mL [10] [%]	residual hCCL1 (100 nM) Gi2 response, protocol #3, mAb 5 µg/mL [10] [%]	% hCCR8 internalization with CCL1 300 nM, mAb 1 µg/ml (HTRF) [11] [%]	% hCCR8 internalization with CCL1 300 nM, mAb 10 µg/ml (HTRF) [11] [%]	Binder
binds	binds	binds	binds	0.018 µg/mL and 0.117 nM	71.3	6.26	526000 % of hCCL1 (100 nM)	0.89 µg/mL and 5.7 nM	0.011 µg/ml and 0.073 nM	0.007 µg/ml and 0.047 nM	73	51	24	69	38	30	–	–	anti-CCR8 mAb 1-7 (antibody, V domains shown, Murine hybridoma mAb) VH: QVHLVETGGGLVRPGNSLKLSCVTSGFTLSNYRMHWLRQPPGKRLEWIAVIKVKSDNYGANYAESVKGRFTISRDDAKSSVYLQMNRLREEDTATYYCSRPDGFSPFVYWGQGTLVTVSA VL: DIKMTQSPSSMYASLGERVTITCKASQDINSYLSWFQQKPGKSPKTLIYRANRLVDGVPSRFSGSGSGQDYFLTISSLEYEDMGIYYCLQYGEFPPTFGAGTKLELK
–	–	–	–	–	–	–	–	–	–	–	–	–	–	–	–	–	95	103	Ref #3 (antibody, human IgG1, V domains shown) VH: EVQLVESGGGLVQPGGSLKLSCAASGFTFNTYAMNWVRQASGKGLEWVARIRSKANNYATYYADSVKDRFTISRDDSKNTLYLQMNNLKTEDTAVYYCVRDRSRGEDYAMDYWGQGTLVTVSS VL: DIVMTQSPLSLPVTPGEPASISCRSSKSLLHSNANTYLYWFLQKPGQSPQLLIYRMSNLASGVPDRFSGSGSGTAFTLKISRVEAEDVGVYYCMQHLEYPFTFGQGTKLEIK
